Results published in US20170355757A1 (Regeneron, published 2017).

T1: hC5a (human, UniProt P01031 678-751)
T1 sequence (looked up): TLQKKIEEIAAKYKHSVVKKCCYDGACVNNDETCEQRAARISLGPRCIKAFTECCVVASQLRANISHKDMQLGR


Target: T1, hC5a
Assay: cell-based or functional assay

| Binder | IC50, inhibition of 500 pM hC5a in HEK293/Gα16/hC5aR1/NFAT-luc cells |
| --- | --- |
| H2aM11694N (antibody, mouse IgG2, V domains shown) VH: EVQLVESGGGVVRPGGSLRLSCAASGFTFDDYGMTWVRQAPGKGLEWVSGINWNGDSTEYSDSVKGRFTISRDNAKNSLYLQMNSLRAEDTAFYHCARENNWNFYFDYWGQGTLVTVSS VL: EIVMTQSPATLSVSRGERATLSCRASQSVSSNLAWYQQKLGQAPRLLIYGASTRATGIPARFSGSGSGTEFTLTISSLQSEDFAVYYCQQYNNWPWTFGQGTKVEIK | 1.4e-10 M |
| H2aM11684N (antibody, mouse IgG2, V domains shown) VH: QVQLQESGPGLVKPSQTLSLTCTVSGGSISSGAYHWSWIRQHPGKGLEWIGYIYYNGDTYYNPSLKSRVTISVDTSKNQFFLKVTSVTAADTAMYYCAGEKQLTAFDIWGQGTLVTVSS VL: VIQMTQSPSSLSASVGDRVTITCRASQDINNFLNWYQQKLGKAPKLLISDASNLQTGVPSRFSGSGSGTDFTFTISSLQPEDIAAYYCQQYDHFPYTFGQGTRLENN | 3.5e-11 M |
| H2aM11695N (antibody, mouse IgG2, V domains shown) VH: QVHLVQSGAEVKKPGASVKVSCKVSGNTLTELSMHWVRQAPGKGLEWMGGFDPEDGDTIYSQKFQGRVTLTEDTSTDTAYMELSSLRSEDTAVYYCSTVGGPTSDCWGQGTLVTVSS VL: DIQMTQSPSSLSASVGDRVTITCQASQDISNYLNWYQQKPGKAPKVLIFDASNLEPGVPSRFSGSGSGTDFTFTIISLQPEDIATYYCQQYDNLPITFGQGTRLDIK | 4.2e-11 M |
| H2aM11682N (antibody, mouse IgG2, V domains shown) VH: QEQLVQSGAEVKKPGASVKVSCKASGYTFTGYYIHWVRQAPGLGLEWMGWINPNSGGTKYAQKFQGRVTMTRDTSINTAYMELKRLKSDDSAVYYCARDAPPHDVFDIWGQGTLVTVSS VL: DIQMTQSPSSLSASVGDRVTITCRASQGIRNDLGWYQQKPGKAPKRLIYAASSLQIGVPSRFSGSGSGTEFTLTISSLQPEDFATYYCLQHNSYPLTFGGGTKVEIK | 4.6e-10 M |
